Results: patent US20190177704A1, “MODIFIED LUCIFERASE” (RIKEN, priority 2016, published 2019)

Columns and labels:
Assay type in all cases: cell-based
[1] = Emission intensity of luciferase-expressing HeLa S3 cells with AkaLumine; details: for relative emission intensity, AKA: emission intensity of D-luciferin defined as 1; for relative emission intensity, AKA / AkaLumine emission intensity, relative value: HeLa S3 cells; for AkaLumine emission intensity, relative value: relative to 1.0 = emission intensity of luc2 with AkaLumine, 80 μM substrate, integrated over one minute
Protocol: (§1) A plasmid pcDNA3 was treated with use of BamHI and EcoRI, and genes encoding the respective luciferases above were each inserted into the plasmid pcDNA3 to produce plasmids for transfection.
(§2) HeLa S3 cells were used as mammalian cells to be transfected. For each of the luciferases above, HeLa S3 cells which had been cultured in D-MEM (low glucose, containing 10% FBS and 1% penicillin streptomycin, Wako Pure Chemical Industries, Ltd.) and were in an 80% confluent state were mixed with a transfection reagent (Polyethylenimine, Linear (MW 25,000, Polysciences, Inc)) and the plasmid for transfection (0.3 μg) to conduct transfection.
(§3) 24 hours after the transfection, the cells were dissociated through trypsinization, and were suspended in DMEM/F12 (10% FBS, gibco). Subsequently, centrifugation was conducted to remove the supernatant, and then the cells were resuspended in 1 mL DMEM/F12 so as to be used as luciferase-expressing cells.
(§4) In 1.5 mL Eppendorf tube, 20 μL of the produced luciferase-expressing cells and 80 μL of a substrate solution (prepared with pH 7.4 PBS) were mixed, and light emission from the obtained mixture was measured for one minute (with use of a luminometer AB-2280 manufactured by ATTO Corporation). An integrated value of the values thus measured within one minute was defined as the emission intensity.
(§5) As the substrate solution, AkaLumine or D-luciferin (80 μM each) was added. Results of the measurement of emission intensity are shown below in Table 2 as relative values with respect to 1.0 which is an emission intensity obtained in a case where AkaLumine was added to a sample of luc2.
(§6) Subsequently, with use of D-luciferin, AkaLumine, AkaLumine-OH, 6-AkaLumine, 0-AkaLumine, monoene NMe2, monoene NH2, monoene OH, and biphenyl as substrates, specificity to each of these substrates was evaluated. The substrates are respectively represented by the following chemical formulae. Each substrate solution contains a single kind of substrate.
(§7) Tables 3 through 8 show results of relative emission intensities in a case where the emission intensity of D-luciferin is defined as 1.

[2] = Emission intensity of luciferase-expressing HeLa S3 cells with D-luciferin; details: for relative emission intensity, Dluc: emission intensity of D-luciferin defined as 1; for D-luciferin emission intensity, relative value: relative to 1.0 = emission intensity of luc2 with AkaLumine, 80 μM substrate, integrated over one minute
Protocol: as §1, §2, §3, §4, §5, §6, §7

[3] = Emission intensity of luciferase-expressing HeLa S3 cells with AkaLumine-OH; details: emission intensity of D-luciferin defined as 1
Protocol: as §1, §2, §3, §4, §6, §7

[4] = Emission intensity of luciferase-expressing HeLa S3 cells with 6-AkaLumine; details: emission intensity of D-luciferin defined as 1
Protocol: as §1, §2, §3, §4, §6, §7

[5] = Emission intensity of luciferase-expressing HeLa S3 cells with monoene NH2; details: emission intensity of D-luciferin defined as 1
Protocol: as §1, §2, §3, §4, §6, §7

[6] = Emission intensity of luciferase-expressing HeLa S3 cells with monoene OH; details: emission intensity of D-luciferin defined as 1
Protocol: as §1, §2, §3, §4, §6, §7

[7] = Emission intensity of luciferase-expressing HeLa S3 cells with biphenyl; details: emission intensity of D-luciferin defined as 1
Protocol: as §1, §2, §3, §4, §6, §7

[8] = Emission intensity of luciferase-expressing HeLa S3 cells with monoene NMe2; details: emission intensity of D-luciferin defined as 1
Protocol: as §1, §2, §3, §4, §6, §7

[9] = Emission intensity of luciferase-expressing HeLa S3 cells with 0-AkaLumine; details: emission intensity of D-luciferin defined as 1
Protocol: as §1, §2, §3, §4, §6, §7

B1: Variant b: luc2 variant with the mutations of column b in Table 1 (SEQ ID NO: 5) (protein)
chain: MEDAKNIKKGPAPFYPLEDGTAGEQLHKAMKRYALVPGAIAFTDAHIQVDVTYAEYFEMSVRLAEAMRRYGLNTNHRIVVCSENSLQFFMPVLGALFIGVAVAPANDIYNERELLNSMGISQPTVVFVSKKGLRKVLDVQKKLPIIRKIIIMDSKTDYQGFQSMYTFVASHLPPSFNEYDFVPECFDRDKTIALIMNSSGSTGLPKGVALPHRTACVRFSHARDPIFGYQNIPDTAILSVVPFHHGFGMFTTLGYLICGFRVVFMYRFEEELFLRSLQDYKIQSALLVPTLFSCLAKSTLIDKYDLSSLREIASGGAPLSKEVGEAVAKRFRLPGIRQGYGLTETTNAVMITPEGDRKPGSVGKVVPFFEAKVVDLVTGKTLGVNQRGELCVRGPMIMSGYVNNPEATNALIDKDGWLHSGDIAYWDEDEHFFIVDRLKSLIKYKGYQVAPAELEGILLQHPYIFDAGVAGLPDDDAGELPAAVVVLEHGKTMTEKEIVDYVASQVTTAKKLRGGVVFVDEVPRGPTGKLDARKIREILTKAKKDGKIAV
modifications: Modified Luciferase
- relative emission intensity, AKA [1]: 2.4 × 10^3
- AkaLumine emission intensity, relative value [1]: 2.4
- relative emission intensity, Dluc [2]: 1.0
- D-luciferin emission intensity, relative value [2]: not detected
- relative emission intensity, AKA-OH [3]: 0.9
- relative emission intensity, 6-AKA [4]: 8.1 × 10^2
- relative emission intensity, monoNH2 [5]: 1.2 × 10^−1
- relative emission intensity, monoOH [6]: 1.5 × 10^−2
- relative emission intensity, biph [7]: 3.1

B2: Variant c: luc2 variant with the mutations of column c in Table 1 (SEQ ID NO: 6) (protein)
chain: MEDAKNIKKGPAPFYPLEDGTAGEQLHKAMKRYALVPGAIAFTDAHIQVDVTYAEYFEMSVRLAEAMRRYGLNTNHRIVVCSENSSQFFMPVLGALFIGVAVAPANDIYNERELLNSMGISQPTVVFVSKKGLRKVLNVQKKLPIIRKIIIMDSKTDYQGFQSMYTFVTSHLPPSFNEYDFVPESFDRDKTIALIMNSSGSTGLPKGVALPHRTACVRFSHARDPIFGYQNIPDTAILSVVPFHHGFGMFTTLGYLICGFRVVLMYRFEEELFLRSLQDYKIQSALLVPTLFSCLAKSTLIDKYDLSSLREIASGGAPLSKEVGEAVAKRFRLPGIRQGYGLTETTNAVMITPEGDRKPGSVGKVVPFFEAKVVDLVTGKTLGVNQRGELCVRGPMIMSGYVNNPEATNALIDKDGWLHSGDIAYWDEDEHFFIVDRLKSLIKYKGYQVAPAELEGILLQHPYIFDAGVAGLPDDDAGELPAAVVVLEHGKTMTEKEIVDYVASQVTTAKKLRGGVVFVDEVPRGSTGKLDARKIREILTKAKKDGKIAV
modifications: Modified Luciferase
- relative emission intensity, AKA [1]: 9.0 × 10^3
- AkaLumine emission intensity, relative value [1]: 6.8
- relative emission intensity, Dluc [2]: 1.0
- D-luciferin emission intensity, relative value [2]: not detected
- relative emission intensity, AKA-OH [3]: 1.8
- relative emission intensity, 6-AKA [4]: 1.8 × 10^3
- relative emission intensity, monoNH2 [5]: 1.8 × 10^−1
- relative emission intensity, monoOH [6]: 1.1 × 10^−1
- relative emission intensity, biph [7]: 4.1

B3: Variant d: luc2 variant with the mutations of column d in Table 1 (SEQ ID NO: 7) (protein)
chain: MEDAKNIKKGPAPFYPLEDGTAGEQLHKAMKRYALVPGAIAFTDAHIQVDVTYAEYFEMSVRLAEAMRRYGLNTNHRIVVCSENSSQFFMPVLGALFIGVAVAPANDIYNERELLNSMGISQPTVVFVSKKGLRKVLNVQKKLPIIRKIIIMDSKTDYQGFQSMYTFVTSHLPPSFNEYDFVPECFDRDKTIALIMNSSGSTGLPKGVALPHRTACVRFSHARDPIFGYQNIPDTAILSVVPFHHGFGMFTTLGYLICGFRVVLMYRFEEELFLRSLQDYKIQSALLVPAPFSCLAKSTLIDKYDLSSLREIASGGAPLSKEVGEAVAKRFRLPGIRQGYGLTETTNAVMITPEGDRKPGSVGKVVPFFEAKVVDLVTGKTLGVNQRGELCVRGPMIMSGYVNNPEATNALIDKDGWLHSGDIAYWDEDEHFFIVDRLKSLIKYKGYQVAPAELEGILLQHPYIFDAGVAGLPDDDAGELPAAVVVLEHGKTMTEKEIVDYVASQVTTAKKLRGGVVFVDEVPRGPTGKLDARKIREILTKAKKDGKIAV
modifications: Modified Luciferase
- relative emission intensity, AKA [1]: 3.4 × 10^3
- AkaLumine/D-luciferin ([1]; ratio of relative emission intensities, Table 2): 3.4 × 10^3
- AkaLumine emission intensity, relative value [1]: 6.1
- relative emission intensity, Dluc [2]: 1.0
- D-luciferin emission intensity, relative value [2]: 1.8 × 10^−3
- relative emission intensity, AKA-OH [3]: 9.8 × 10^−1
- relative emission intensity, 6-AKA [4]: 1.5 × 10^3
- relative emission intensity, monoNMe2 [8]: 6.6
- relative emission intensity, monoNH2 [5]: 1.3 × 10^−1
- relative emission intensity, monoOH [6]: 7.1 × 10^−2
- relative emission intensity, biph [7]: 7.5

B4: N229Y_S347N: luc2 variant with N229Y and S347N mutations (SEQ ID NO: 2) (protein)
chain: MEDAKNIKKGPAPFYPLEDGTAGEQLHKAMKRYALVPGTIAFTDAHIEVDITYAEYFEMSVRLAEAMKRYGLNTNHRIVVCSENSLQFFMPVLGALFIGVAVAPANDIYNERELLNSMGISQPTVVFVSKKGLQKILNVQKKLPIIQKIIIMDSKTDYQGFQSMYTFVTSHLPPGFNEYDFVPESFDRDKTIALIMNSSGSTGLPKGVALPHRTACVRFSHARDPIFGYQIIPDTAILSVVPFHHGFGMFTTLGYLICGFRVVLMYRFEEELFLRSLQDYKIQSALLVPTLFSFFAKSTLIDKYDLSNLHEIASGGAPLSKEVGEAVAKRFHLPGIRQGYGLTETTNAILITPEGDDKPGAVGKVVPFFEAKVVDLDTGKTLGVNQRGELCVRGPMIMSGYVNNPEATNALIDKDGWLHSGDIAYWDEDEHFFIVDRLKSLIKYKGYQVAPAELESILLQHPNIFDAGVAGLPDDDAGELPAAVVVLEHGKTMTEKEIVDYVASQVTTAKKLRGGVVFVDEVPKGLTGKLDARKIREILIKAKKGGKIAV
modifications: Modified Luciferase
- relative emission intensity, AKA [1]: 6.4 × 10^3
- relative emission intensity, Dluc [2]: 1.0
- relative emission intensity, AKA-OH [3]: 2.1
- relative emission intensity, 6-AKA [4]: 9.6 × 10^2
- relative emission intensity, monoNMe2 [8]: 2.4 × 10^2
- relative emission intensity, monoNH2 [5]: 1.7
- relative emission intensity, monoOH [6]: 1.4 × 10^−2
- relative emission intensity, biph [7]: 6.9

B5: N229Y_H310Q_S347N: luc2 variant with N229Y, H310Q and S347N mutations (SEQ ID NO: 4) (protein)
chain: MEDAKNIKKGPAPFYPLEDGTAGEQLHKAMKRYALVPGTIAFTDAHIEVDITYAEYFEMSVRLAEAMKRYGLNTNHRIVVCSENSLQFFMPVLGALFIGVAVAPANDIYNERELLNSMGISQPTVVFVSKKGLQKILNVQKKLPIIQKIIIMDSKTDYQGFQSMYTFVTSHLPPGFNEYDFVPESFDRDKTIALIMNSSGSTGLPKGVALPHRTACVRFSHARDPIFGYQIIPDTAILSVVPFHHGFGMFTTLGYLICGFRVVLMYRFEEELFLRSLQDYKIQSALLVPTLFSFFAKSTLIDKYDLSNLQEIASGGAPLSKEVGEAVAKRFHLPGIRQGYGLTETTNAILITPEGDDKPGAVGKVVPFFEAKVVDLDTGKTLGVNQRGELCVRGPMIMSGYVNNPEATNALIDKDGWLHSGDIAYWDEDEHFFIVDRLKSLIKYKGYQVAPAELESILLQHPNIFDAGVAGLPDDDAGELPAAVVVLEHGKTMTEKEIVDYVASQVTTAKKLRGGVVFVDEVPKGLTGKLDARKIREILIKAKKGGKIAV
modifications: Modified Luciferase
- relative emission intensity, AKA [1]: 4.1 × 10^3
- relative emission intensity, Dluc [2]: 1.0
- relative emission intensity, AKA-OH [3]: 1.4
- relative emission intensity, 6-AKA [4]: 1.1 × 10^3
- relative emission intensity, O-AKA [9]: 2.1 × 10^−3
- relative emission intensity, monoNH2 [5]: 7.3 × 10^−1
- relative emission intensity, monoOH [6]: 1.3 × 10^−1
